The text below walks through data of the DeepSol protein solubility set.

The nature of the data set: soluble on expression in E. coli; label from the status in PepcDB or PDB records.
As to “MKKLAVLFMCAAMLASCDFKGGSKDLKAENDSLLMELTQRNAELDDMMGTFNEVQEGFRKINAAESRVDLQRGTITENSASAKQQIASDIEFISKQMEENKAQIAKLEAQLKNSKYNSTQMKKAVEALTAELKAKQQRIEELQTELASKNIRIQELDAAVSDLSAAKESLAAENEAKAKTVAEQDKSLNAAWFVFGTKSELKAQKILQSGDVLKSADFNKDYFTQIDIRTTKEIKLYSKRAELLTTHPTGSYELVKDDKGQLTLKITNPAEFWSVSRYLVIQVK”, the “soluble on expression in E. coli” value was “not soluble”.
Then “MLEARDLYCERDERTLFRGLSFTVDAGEWVQVTGGNGAGKTTLLRLLTGLARPDGGEVYWQGEPLRRVRDSFHRSLLWIGHQPGIKTRLTARENLHFFHPGDGARLPEALAQAGLAGFEDVPVAQLSAGQQRRVALARLWLTRAALWVLDEPFTAIDVNGVARLTRRMAAHTAQGGMVILTTHQPLPGAADTVRRLALTGGGAGL”, with “not soluble”; and “MTKNLLVELGLEELPAYVVTPSEKQLGEKMAAFLKGKRLSFEAIQTFSTPRRLAVRVTGLADKQSDLTEDFKGPAKKIALDSDGNFTKAAQGFVRGKGLTVEDIEFREIKGEEYVYVTKEEIGQAVEAIVPGIVDVLKSLTFPVSMHWAGNSFEYIRPVHTLTVLLDEQEFDLDFLDIKGSRVSRGHRFLGQETKIQSALSYEEDLRKQFVIADPCEREQMIVDQIKEIEAKHGVRIEIDADLLNEVLNLVEYPTAFMGSFDAKYLEVPEEVLVTSMKEHQRYFVVRDQDGKLLPNFISVRNGNAERLKNVIKGNEKVLVARLEDGEFFWREDQKLVISDLVEKLNNVTFHEKIGSLREHMIRTGQITVLLAEKASLSVDETVDLARAAAIYKFDLLTGMVGEFDELQGIMGEKYTLLAGETPAVAAAIREHYMPTSAEGELPESKVGAVLAIADKLDTILSFFSVGLIPSGSNDPYALRRATQGVVRILDAFGWHIAMDELIDSLYALKFDSLTYENKAEVMDFIKARVDKMMGSTPKDIKEAVLAGSNFV”, with “not soluble”; and “SNAEKAVLIGEKEADITFVTWGSQKGPILDVIEDLKEEGISANLLYLKMFSPFPTEFVKNVLSSANLVIDVESNYTAQAAQMIKLYTGIDIKNKILKYNGRHMTEDEILKSAKEILNK”, with “soluble”.
As for “MGSDKIHHHHHHMAERLGILVGGGPAPGINSVISSVTIEAINNGLEVIGIYDGFKHLVEGKTNMVKKLSIEDVSRIHIEGGSILRTSRVNPAKSEETLEKTVQTLKKLGIKYLVTIGGDDTAFSASKVCERSKGEIKVVHVPKTIDNDLPLPENMPTFGFETARHVATELVYNLMQDSRTTNRWYFVAMMGREAGHLALGVGKAASATITIIPEEFKEGVTLEEVCDVLDGAILKRKLMGRDDGVAVIGEGIAEKMDPEELANIPGVIVEKDPHGHLRLAEIPLATILKRAIERRYAERGERIHIVDVTIGYELRSARPIPFDIVYTRTLGYGAVRFLLGDYSDLPGGMVCVVGGRIKILPFDAFMDPKTGRTKVRVVDVRSEDYRVARKYMIRLEKKDLEDPETLEKLAKLAKMEPEEFKKKYWHTTELP”, the “soluble on expression in E. coli” value is recorded as “not soluble”.
The value for “SLPEKVLVAGNNVRNVAESASKAGFEVFAITKFVDADLRIYCREVERVDDSLPEKEIAKKIEDKAEEIDAKVVLCSGFETLRVRGELLCNPYGKVERVANKLKFYRELEKAGLPFPELLGEGERGIIKPVVGGGGEEVVMGEEVPKGFLKQRFVSGTPCSVSVIANGERALPLACNLIYAGWKEMNASGFRYSGNMTPFIVEEEIRKELERLAVEAVELFGLAGSVGVDFVLAEKPYILEINPRFQGSLDSVEWSCDVNLFKMHAEAFDGRLPERVRPRRYALRAILFSPRDVEIKENLAGNPFYADVPGKGERYGKNDPLVSILAAGKSREDVERRVLERRDLFLSLA” was “not soluble”.
The value for “MLLFSRQGKLRLQKWYMAYPDKVKKKITRELVTTILARKPKMCSFLEWKDCKIVYKRYASLYFCCAIEQNDNELLTLEIIHRYVELLDKYFGSVCELDIIFNFEKAYFILDELLIGGEIQETSKKNVLKAIASQDLLQEDETPQSFFDDHGLG” was “soluble”; that for “MGSDKIHHHHHHMTSDDLLPYGYIDAHHHVWAPDSHGDAIGYGWLRDIGAMKPFGDPTPIQRDYLMAEFLSEAPDAPRASVHVQTDGTLPDPVAETRFVQAQADATDHPVKIVGLADLGAEDLTGTLDRHAESRDFCGVRQIAARLDHRPDLTFAPQDYLADEQWVNGLKILEDRGLTFDLQIYPEQAEAALEALSATPALTVIIDHALCPYDPAKITQWQAAVALMAARDNTFIKLSGWGMYDAEWDLNGGVSVQPLVSHILERFGADRVMWGSNFPVEKLATRYETCRDVHLDMVPEDAHQDVFFNSAAKTYGLTLT” was “not soluble”.
As for “MGSDKIHHHHHHMSELLAIPLKRTLEVDFATELSKLIDTTSFQTASFFQSDILKVVDARNNAIAPDISIDGLSALKEYYVILLQLEKKFPNNQIEFTWFQTLSQKSRGTSQYSLQWEKLTIIYNIGCMYSLLALNSNNDAAESLKTSCLYFQNAAGCFKHVLDHQKNLETIPVVDDATLNALTSLMLAQAQECFWFKAVQDKHKDSLIAKLSQQIVDFYCEAINDAQRGKLIRSDWINHLKAKKAYFSAVTYYRIALSFNEKKQFGNVVKALQMGLQFINESTLSSQAKFKTVVESSLKEAQRDNEFIYLQEVPSELPSIKPALMVKPSSSATLLPSIKKDETLFKDLIPIEVMEYCTAYNERQDEYVEQRVTNPLASLNKLLKESLTTFQIPQGLTKVSEAELSHYQASLNNLLINNKNVQVQLDNIEQILNEEAFTDNQLRLKHGTLNWTLPESSTTNTAYYEKLKKLRGYLDEGSAIDKQTNELFQSIDKNLIGSEIRLPESNDPLTNKIKMIIQERNDYIDRTRRKSSEYRILPKIITSYKKNGTVDFEPIFIGHLKYFDEDLRYVNSTKEENIKLIEEVNLSKKNNPGRSGIEPKKMVRIDPRELYIEDLRYSFKLLDEVKENLSAGTAFYENLITSTSNLYNEVQEYDTARRAEKARLDKSLTFEDQ”, the “soluble on expression in E. coli” value is “not soluble”.
“MNQDLSQTFLAITRNSTDLEWLQGALAPLGQVVGADGSLDELLALVDVTFANLVFVGLDREHVVAQAALIEGALEAKPMLAIVALGDGMDNQLVLNAMRAGARDFVAYGSRSSEVAGLVRRLSKRLPAVTPNTQLGGLTVLYGAQGDGDGALLASHLALVVQKSGQQTLLLDLGLPRGDSLALLGLESSFHFGDALRHLRRLDATLIDSAFTSAEAGLRILAYASHDAPLEHTSAAELYMLLSALRQHFQHIVVNLVGQPDSEALRTFVSHCDKLLWCTDQNVLDCRRNLAVLNHWREKGMKLEHARLLVDRYLRTVAPDSETLGKTFGLEVIAVLAYSPEVRLNAKNQGVTLFELAPREALTQSLRTLGERLAKRSQGLPKPKAGWLNRIMGGRLEHHHHHH”: the “soluble on expression in E. coli” value is “not soluble”.
For the sequence “MPRGYKNPRVVPDNVERVISAYTPVPGTLAWGVVWEDPFAEFVRECARDLGLPATASDDVIRGNLRLIASFVAWVIHEYDCPLRRDEIFDYILAEAYAMSVIYVRDGHGKGTSNKVRGIRRSMLTKIGWKMNKHFGEPHKHTLPQEGALEPYKQWQLNKVDAWAGSQPNERRRRNARVAIALALGAGLRTSEIAGLTADDCEVTDSGMVLIHAPGYRGGEPRITVVDHRFEDTITDRLAELADLRAAGEPGQYLYCPHLLGRTTDMVNDYMKKKITSSGADCYLQPDLRRLRNTWITGHIKAGVEEGAICQAAGLKSLNQFRDLVDEAAKARAEQSYARLRGGEHRPVLRLVQG”, the “soluble on expression in E. coli” value was “not soluble”.
Consider “EVQLQESGPSLVKPSQTLSLTCSVTGDSVTSDFWSWIRKFPGNKLEYMGYISYSGSTYYHPSLKSRISITRDTSKNQYYLQLNSVTTEDTATYYCASWGGDVWGAGTTVTVSSAKTTAPSVYPLAPVCGDTTGSSVTLGCLVKGYFPEPVTLTWNSGSLSSGVHTFPAVLQSDLYTLSSSVTVTSSTWPSQSITCNVAHPASSTKVDKKI”, for which the “soluble on expression in E. coli” value was “soluble”.
Consider “MGSDKIHHHHHHMKKYKNSLYVLALCGTMAACKPHIEEPSIDKGSLDVTKYVAVGNSITSGYADNALYYDGQQVSFANLLSGQFSKIGGGEFKQPLVSQTSVGVGSTGGARLKLALKTDCLGNTSLSPVPVAASGDLSIFGNIYSSAGPFNNMGVPGAKSVTTIYHGYGNPGNGLGKFNPFFTRMASNPATASILQDAMAQNPTFFTLFIGSNDVLLYALAGAANDSITPVAGGPGVGFDASMDAIVNTLVSGGAKGAIGNVPDITSLPYFTTVPYNGLVLTSQAQVDALNTAYTPFGITFHLGQNPFIIADAAAPGGRRQITSSEYVLLSVPQDSLKCNQWGSAKPIPNQYILTASEISNIRTAITNYNSKIKNLAAAHGLAFVDVNSFLMMAETGITYNGINLNTTFVSGGAFSLDGVHLTPIGNAMLANEFIKSINMTYGSTLPLIDATKYSGVKFP”, for which the “soluble on expression in E. coli” value was “not soluble”.
Regarding “MGSDKIHHHHHHMNLVEISDIDKEILMKLEYEFPFDPQPFNIISDGLKISEEELLNRVKKLLEDGIIKRIGMYVSFRAKGMDGALIAARIPQDKIEKFRKIALGIRELTHNYVRDHPKFNIWFVLKANDRDTLNENVKELLSHVESNDYVILYSKKTLKLSVKYDVIRGVSWSPNNTIRSLSKVPTAEELGINKQLLTELSYPLKISQRPFKEIAEKYKMKEDELVELIKELYDKNVIKDYGATLNGEKIGIVENGMVLLDTSNVEQACEKLALNIPEATHVVLRESNDENWKYLCYSMIHASKKETIRNVAKEISKETNSRSYMILFSLENLKPGIVI”, the “soluble on expression in E. coli” value is “not soluble”.
As to “MGSDKIHHHHHHMSKLNLVHLNGLRAVEAVGRLGSLQAAASELGVSIGAISQQVIKAEQQLQLQLFERTSRGMVPTDVAEPVLDRLSAGFRHLSGAVALALKSDDTVLTISVAPVFAARWLVHRIGAFSERFPTIRLRMEASDRLIDPSSSDVDLCIRVGRGDWPGVRAELLLEQKVFPVCTPAMAKRLQSPADLLELPIVEDGRAMFSWDVWLAAAGLPGRSVCTRHVFSEASLCLDAALAGQGVLLAWQTIASQQLQQGQLVAPFGPAVPTGLAHYFVSPEGARRNDKVDAFKRWLRDELHEDMTRLAKAIPFLGGPFLKGECG”, the “soluble on expression in E. coli” value was “not soluble”.
Then “SLQVDASGHQILLNYRKERSLQEFVPQVSLTEVLTGKINANTVKNKIVLIGTTAESFEDYSFTPNITNQGAIRKYQVLSLQAQMISQLLSAALDGRSLIWAWSVWQETIWIWGWSLTGSLLAWYIR”, with “not soluble”; and “MAHHHHHHMPYNALVSSHLAELTLCKLAELMVPNDFNLFVLAIKDDLLSKALEDHSLFVFLSAAFVNAIIPKLKELKLEEDKDDSPHLCALRVRPHERPFKPRLLECLKDFKGKINAECRVLYKPEAKNFPLVDGFFFVESKPKIMVGLQMTTASEHHTIPSTVNLFKENMAKYFNGWEKFSRDMLWEIIYIQHADSTPLDGWQRCDYVNPRNKTDAENEIVAFWNGKVHQYQFVLTTEFVSKIREMKM”, with “not soluble”.
Turning to “SENLYFQSKVTVGPDPSLVYRPDVDPEVAKDKASFRNYTSGPLLDRVFTTYKLMHTHQTVDFVRSKHAQFGGFSYKKMTVMEAVDLLDGLVDESDPDVDFPNSFHAFQTAEGIRKAHPDKDWFHLVGLLHDLGKVLALFGEPQWAVVGDTFPVGCRPQASVVFCDSTFQDNPDLQDPRYSTELGMYQPHCGLDRVLMSWGHDEYMYQVMKFNKFSLPPEAFYMIRFHSFYPWHTGRDYQQLCSQQDLAMLPWVREFNKFDIYTKCPDLPDVDKLRPYYQGLIDKYCPGILSW”, the “soluble on expression in E. coli” value is “soluble”.
